Tests used:
Type in all cases: cell-based, human
CD4 = test: Surface expression of co-transfected CD4 on HeLa cells, flow cytometry
Method: (§1) Flow cytometry. Cells were removed from tissue culture dishes with 0.05% Trypsin-EDTA (Invitrogen), washed with ice-cold PBS, and incubated with appropriate antibody for 30 minutes at 4° C. The cells were washed with ice-cold PBS and either resuspended in ice-cold PBS or incubated with PE-conjugated anti-mouse secondary antibody (DAKO) and washed again before analysis with a BD Biosciences (San Jose, Calif.) FACScalibur flow cytometer.
The ability to downregulate MHC I is common to KSHV-K3, KSHV-K5, MHV68-K3 and MV-M153R (Coscoy and Ganem, 2000, supra; Guerin et al., 2002, supra; Ishido et al., 2000b supra; Stevenson et al., 2000, supra). Additional substrates are ICAM-1 and B7.2 (but not B7.1) for KSHV-K5, as well as CD95 and CD4 for M153R (Coscoy and Ganem, 2001, supra; Guerin et al., 2002, supra; Ishido et al., 2000a, supra; Mansouri et al., 2003, supra). Since only low copy numbers were detected in HeLa cells for transcripts corresponding to each of the MARCH-proteins (FIG. 7C, and data not shown), HeLa cells were transfected with expression plasmids for MARCH-I, II, III, IV, V and VIII. Surface expression of selected glycoproteins was monitored upon transfection. […] Surface expression of the respective markers was analyzed by flow cytometry. […]

HLA-A2.1 = test: Pulse-chase of HLA-A2.1 maturation and turnover in transfected HeLa cells; conditions: HeLa cells co-transfected with HLA-A2.1 and MARCH-IV, chase up to 8 hours
Method: Metabolic labeling, immunoprecipitation and Western blotting. HeLa cells were grown to 80% confluency in 100 mm tissue culture dishes and transfected as above. Cells were incubated in serum-free and methionine-free medium for 30 minutes, and metabolically labeled with ^35S-cysteine/^35S-methionine (250 μCi, Amersham) for the indicated time. After labeling, cells were washed twice with PBS and either lysed immediately in PBS containing 1% Triton X-100 and protease inhibitors (Roche, Indianapolis, Ind.), or the label was chased with excess (2 mM) unlabeled cysteine and methionine in the presence or absence of specific inhibitors for the indicated time. The cell lysates were precleared with protein A/G agarose beads and incubated with 3 μg of antibody for one hour and followed by two hours incubation with protein A/G beads. Immunoprecipated proteins were washed five times with 0.1% Triton X-100 in PBS. All samples were boiled in SDS buffer and analyzed by SDS-PAGE gel electrophoresis. Where indicated, samples were treated with Endoglycosidase H (Roche) according to manufacturer's instructions. Briefly, samples were initially denatured at 100° C. in 40 μl of 0.3% SDS, 150 mM 2-mercaptoethanol, 50 mM sodium acetate, pH 5.5 and incubated with 4 milli-Units of Endo H overnight at 37° C. All samples were boiled in SDS buffer and analyzed by SDS-PAGE gel electrophoresis. […]

HLA class I (MHC I) = test: Surface expression of endogenous MHC I on transfected HeLa cells, flow cytometry
Method: as §1
The ability to downregulate MHC I is common to KSHV-K3, KSHV-K5, MHV68-K3 and MV-M153R (Coscoy and Ganem, 2000, supra; Guerin et al., 2002, supra; Ishido et al., 2000b supra; Stevenson et al., 2000, supra). Additional substrates are ICAM-1 and B7.2 (but not B7.1) for KSHV-K5, as well as CD95 and CD4 for M153R (Coscoy and Ganem, 2001, supra; Guerin et al., 2002, supra; Ishido et al., 2000a, supra; Mansouri et al., 2003, supra). Since only low copy numbers were detected in HeLa cells for transcripts corresponding to each of the MARCH-proteins (FIG. 7C, and data not shown), HeLa cells were transfected with expression plasmids for MARCH-I, II, III, IV, V and VIII. Surface expression of selected glycoproteins was monitored upon transfection. The following known substrates for viral K3-family members were tested: Fas (CD95) and HLA class I (MHC I), both of which are endogenously expressed in HeLa cells, as well as transfected HLA-A2.1 or CD4. […] Surface expression of the respective markers was analyzed by flow cytometry. GFP was used to identify transfected cells.
With regards to whether MHC I downregulation by MARCH-IV was only observed at very high expression levels, since the viral immune evasion genes seem to be dedicated to MHC I downregulation, MHC I expression was compared at different expression levels of MARCH-IV or KSHV-K5 by taking advantage of the tetracycline-regulatable system to partially express either protein (Gossen, M. and H. Bujard, Proc. Natl. Acad. Sci. USA 89:5547-5551, 1992). Tet-off HeLa cells were transfected with either MARCH-IV or with KSHV-K5 in the presence of increasing amounts of tetracycline to shut off transcription. […]

B1: MARCH-IV: human membrane-associated RING-CH ubiquitin ligase, SEQ ID NOS:45 and 57; construct used lacks the first 63 amino-acids (protein)
chain: WYCYGLCAPAPQMLRHQGLLKCRCRMLFNDLKVFLLRRPPQAPLPMHGDPQPPGLAANNTLPALGAGGWAGWRGPREVVGREPPPVPPPPPLPPSSVEDDWGGPATEPPASLLSSASSDDFCKEKTEDRYSLGSSLDSGMRTPLCRICFQGPEQGELLSPCRCDGSVKCTHQPCLIKWISERGCWSCELCYYKYHVIAISTKNPLQWQAISLTVIEKVQVAAAILGSLFLIASISWLIWSTFSPSARWQRQDLLFQICYGMYGFMDVVCIGLIIHEGPSVYRIFKRWQAVNQQWKVLNYDKTKDLEDQKAGGRTNPRTSSSTQANIPSSEEETAGTPAPEQGPAQAAGHPSGPLSHHHCAYTILHILSHLRPHEQRSPPGSSRELVMRVTTV
surface expression of transfected CD4 (CD4; HeLa cells co-transfected with CD4 and MARCH plasmid): reduced the surface expression | downregulation of CD4 with lysines removed from the cytoplasmic tail (CD4; HeLa cells, lysine-deleted CD4): resistance | fate of HLA-A2.1 in pulse-chase (HLA-A2.1): exits the ER but is degraded | surface expression of MHC I (HLA class I (MHC I); HeLa cells transfected with MARCH plasmid and GFP, 24 h post-transfection): significantly downregulated | MHC I downregulation at tetracycline-regulated expression levels (HLA class I (MHC I); Tet-off HeLa cells, increasing amounts of tetracycline, below the detectable level of RING-CH protein expression): partial MHC I downregulation

Reference: patent US20050079613A1, “Downregulation of cell surface glycoproteins by a family of human ubiquitin ligases” (Oregon Health & Science University, priority 2002, published 2005)
